{"source": "paper PMC11022532", "target": "CslA-His12 (cellulose synthase-like protein CslA from Streptomyces lividans, full length, C-terminal 12-histidine tag) (Streptomyces lividans)", "data": [{"substance": "Flag-tagged GlxA^12-261 (truncated GlxA lacking Region-2 and Domain 3) (domain or fragment)", "values": [{"measurement": "activity (UDP release) of the CslA–GlxA^12-261 complex against the wild-type CslA–GlxA complex", "value": 40, "unit": "%"}]}]}
